The values that follow come from PMC6137059.

This series deals with TcpK (Clostridium perfringens (plasmid pCW3)) (UniProt Q1PLI2). Description: SPR. The conditions noted are these: SPR: 10 mM HEPES pH 7.4, 200 mM NaCl, 3 mM EDTA, 0.05% Tween 20, 20 C.

For the sequence “AAGGAACTTTACAAGGAACTTTA (double strand) [linker CAA]”, the binding signal was determined as 25 % Rmax.

The sequence “AAGGAACTTTACAGGGAACTT (double strand) [R2L10]” showed a binding signal of 55 % Rmax.

“AAGGAACTTTACAGGGAACTTTA (double strand) [R2L9]”: the binding signal is 100 % Rmax.

With “AAGGAACTTTACAGGGAACTTTA (double strand) [oriTmin23 (SPR)]”, the Kd was found to be 360 nM.

As for “AAGGAACTTTACAGGGAACTTTAAAAATTT (double strand) [oriT#1 (SPR)]”, the Kd was 521 nM.

With “AAGGAACTTTACAGGGAACTTTAAAAATTTAAATTGATA (double strand) [R2L1]”, the binding signal is 100 % Rmax.

Turning to “ACAGGGAACTTTAAAAATTTAAATTGATAT (double strand) [oriT#2 (SPR)]”, the Kd was 2580 nM.
